Assay results reported in paper PMC7913460, “Targeting hydroxycinnamoyl CoA: shikimate hydroxycinnamoyl transferase for lignin modification in Brachypodium distachyon” (Biotechnology for Biofuels, 2021).

Assays:
[1] = substrate: CC(C)(COP(=O)(O)OP(=O)(O)OC[C@H]1O[C@@H](n2cnc3c(N)ncnc32)[C@H](O)[C@@H]1OP(=O)(O)O)[C@@H](O)C(=O)NCCC(=O)NCCSC(=O)/C=C/c1ccc(O)cc1; assay: HPLC product assay, forward HCT reaction; format: biochemical, Arabidopsis thaliana; conditions: 500 µM shikimic acid, 100 mM sodium phosphate pH 7.5, 500 µM DTT, kcat apparent
Excerpt: HPLC product assay, forward HCT reaction on AtHCT1

[2] = substrate: O=C(/C=C/c1ccc(O)c(O)c1)O[C@@H]1CC(C(=O)O)=C[C@@H](O)[C@H]1O; assay: HPLC product assay, reverse HCT reaction; format: biochemical, Arabidopsis thaliana; conditions: 500 µM CoA, 100 mM sodium phosphate pH 7.5, 500 µM DTT, kcat apparent, substrate tested 20 to 400 µM
Excerpt: HPLC product assay, reverse HCT reaction on AtHCT1

B1: AtHCT1 (Arabidopsis thaliana) (protein)
chain: MKINIRDSTMVRPATETPITNLWNSNVDLVIPRFHTPSVYFYRPTGASNFFDPQVMKEALSKALVPFYPMAGRLKRDDDGRIEIDCNGAGVLFVVADTPSVIDDFGDFAPTLNLRQLIPEVDHSAGIHSFPLLVLQVTFFKCGGASLGVGMQHHAADGFSGLHFINTWSDMARGLDLTIPPFIDRTLLRARDPPQPAFHHVEYQPAPSMKIPLDPSKSGPENTTVSIFKLTRDQLVALKAKSKEDGNTVSYSSYEMLAGHVWRSVGKARGLPNDQETKLYIATDGRSRLRPQLPPGYFGNVIFTATPLAVAGDLLSKPTWYAAGQIHDFLVRMDDNYLRSALDYLEMQPDLSALVRGAHTYKCPNLGITSWVRLPIYDADFGWGRPIFMGPGGIPYEGLSFVLPSPTNDGSLSVAIALQSEHMKLFEKFLFEI
B1 was tested. Which Km [1] did it give?
Its Km is 18.5 µM.

And the kcat [1]?
Its kcat is 17.5 s⁻¹.

What about the kcat/Km [1] of the same protein?
Its kcat/Km is 950000 M⁻¹ s⁻¹.

What about the Km [2] of the same protein?
Its Km is 225.0 µM.

What about the kcat [2] of the same protein?
Its kcat is 17 s⁻¹.

And the kcat/Km [2]?
The kcat/Km was 76000 M⁻¹ s⁻¹.
